This is an account of results in US10208121B2, “Anti-Axl antagonistic antibodies” (BERGEN TEKNOLOGIOVERFORING AS, priority 2014, dated 2019).

One assay deals with Mv4-11 tumours. Description: Mv4-11 AML xenograft in nude mice. The class given is in vivo, mouse. As to the method:
Inhibition of Mv4-11 xenograft tumour growth by the chimeric antibody 10G5. The antibody was administrated intraperitoneally at 30 mg/kg, twice a week, starting when the mean tumour size reached 200 mm^3. Tumour growth curves for the groups treated with either vehicle (sterile PBS) or chimeric 10G5 are shown. Error bars represent standard error of the mean (SEM). Statistical analysis was performed using two-way ANOVA. *, P<0.05; **, P<0.01; ****, P<0.0001.
To evaluate the anti-tumour activity of anti-Axl chimeric antibodies in a model of haematological cancer, we used a mouse xenograft model of human acute myeloid leukaemia (AML). The human AML Mv4-11 cells (ATCC # CRL-9591) cells were propagated in suspension in IMDM medium supplemented with 10% FBS, 2 mM L-Glutamine, 100 U/ml penicillin and 100 μg/ml streptomycin. Nude mice were implanted s.c. into the flank with 5×10^6 Mv4-11 cells resuspended in the mixture of serum-free IMDM medium and Matrigel (1:1). When the tumour size reached 200 mm^3 (Day 0 in FIG. 15), the animals were randomized and treated with either vehicle (sterile PBS) or anti-Axl chimeric antibody 10G5 at 30 mg/kg, by i.p. injections twice weekly for 4 weeks.

A further assay relates to A549 tumours. Description: A549 NSCLC xenograft in nude mice. The class given is in vivo, mouse. As to the method:
Inhibition of A549 xenograft tumour growth by chimeric antibody 10G5. The antibody was administrated intraperitoneally at 20 mg/kg, twice a week, starting when the mean tumour size reached 100 mm^3. Tumour growth curves for the groups treated with either vehicle (sterile PBS) or chimeric 10G5 are shown. Error bars represent standard error of the mean (SEM). Statistical analysis was performed using two-way ANOVA. **, P<0.01.
To evaluate the anti-tumour activity of anti-Axl chimeric antibodies in vivo, we used a mouse xenograft model of human non-small cell lung cancer (NSCLC). The human NSCLC A549 cells (ATCC #CCL-185) A549 cells were propagated in vitro as a monolayer culture in DMEM medium supplemented with 10% FBS, 2 mM L-Glutamine, 100 U/ml penicillin and 100 μg/ml streptomycin, 0.01M HEPES buffer, 0.45% D-(+)-glucose, 1 mM sodium pyruvate. Nude mice were implanted subcutaneously (s.c.) into the flank with 5×10^6 A549 cells resuspended in serum-free medium/Matrigel (1:1). When the tumour size reached 100 mm^3 (Day 0 in FIG. 14), the animals were randomized and treated with either vehicle (sterile PBS) or anti-Axl chimeric antibody 10G5 at 20 mg/kg, by intraperitoneal (i.p.) injections twice weekly for 4 weeks.

The subject of assay [1] is Gas6-mediated Axl signalling (phosphorylation of Akt on Ser^473). Description: Gas6-induced Axl downstream signalling, Western blot of phospho-Akt (Ser^473). The class given is cell-based, human. The settings on record: HeLa cells, 1 μg/mL antibody for 1 hr, then mouse Gas6 10 μg/mL for 20 min. As to the method: Western blot analysis illustrating inhibition of Gas6-mediated Axl signalling in the presence of mouse monoclonal antibodies 10C9 and 10G5. Phosphorylation of Akt on Ser^473 was used as surrogate readout for Axl activity. M, molecular weight markers. Immunoblots of total cell lysates were probed with anti-phospho-Akt (Ser^473), or anti-GAPDH (glyceraldehyde 3-phosphate dehydrogenase) as loading control.
The experiments were performed using human cervical cancer derived cell line HeLa (ATCC® CCL-2™). The cells were grown in T175 flasks to 80% confluency in MEM culture medium (Sigma) supplemented with 10% FBS, penicillin-streptomycin and L-glutamine. The cells were washed with PBS and detached by treatment with 0.25% Trypsin/EDTA (Sigma) followed by centrifugation and resuspension in fresh medium (MEM/0.5% FBS). The cells were seeded in Petri dishes (3×10^6 cells per dish) in MEM medium supplemented with 10% FBS. After three hrs incubation at 37° C., the cells were washed with PBS and kept in starvation medium (MEM/0.5% FBS) overnight. The cells were pre-incubated with anti-Axl antibody 10C9 or 10G5 at concentration 1 μg/mL for 1 hr followed by stimulation with Axl ligand, recombinant mouse Gas6 (R&D Systems), at concentration 10 μg/mL for 20 min. […] Detection with anti-GAPDH antibody (Millipore) was used as loading control.

Entries after “also recorded” stand apart in the source; their conditions may differ.

B1: c10G5: chimeric (mouse variable/human constant) IgG1 variant of antibody 10G5 (antibody)
heavy: QVQLQQSGAELVRPGASVKLSCKASGYSFTDFYINWVRQRPGQGLEWIARIFPGGDNTYYNEKFKGKATLTAEESSSTAYIQLSSLTSEDSAVYFCARRGLYYAMDYWGQGISVTVSS
light: DVLMTQTPLSLPVSLGDQASISCRSSQSLVHSNGIPYLHWYLQKPGQSPKLLIYRVSNRFSGVPDRFSGSGSGTDFTLKISRVEAEDLGVYFCSQGTHVPPTFGGGTKLEIK
modifications: left off: a dimerising Fc or GST
notes: chimeric (mouse variable/human constant) IgG1 variant of antibody 10G5
Regarding B1, in the assay with Mv4-11 tumours (30 mg/kg i.p. twice weekly for 4 weeks, P<0.0001, two-way ANOVA), the “growth of Mv4-11 tumours compared with the control” value is reported as “extremely significantly attenuated growth of Mv4-11 tumours”. The “inhibition of tumour growth” value with Mv4-11 tumours (30 mg/kg i.p. twice weekly, after three weeks of treatment, versus vehicle (PBS)) was “around 75%”; with A549 tumours (20 mg/kg i.p. twice weekly, after four weeks of treatment, versus vehicle (PBS)), “around 40%”. Further, the “growth of A549 tumours compared with the control” value in the assay with A549 tumours (20 mg/kg i.p. twice weekly for 4 weeks, P<0.01, two-way ANOVA) is recorded as “significantly attenuated growth of A549 tumours”.

B2: 10C9: mouse anti-Axl monoclonal antibody from hybridoma UT-10C9-B9, IgG2b; VH SEQ ID NO: 3, VL SEQ ID NO: 4 (antibody, listed as Mus musculus, V domains shown)
VH: QVQLQQPGPELVKPGASVKISCKTSDYNFTRYYIHWVKQRPGQGLEWIGWIYPGTGDSKYNEKFKGRATLTADTSSSTAYMQLSSQTSEDSAVYFCARNGNYWYFDVWGAGTAVTVSS
VL: DIVMTQAAPSGPVTPGESVSISCRSSKSLLHSNGNTYLYWFLQRPGQSPQLLIYRMSNLASGVPDRFSGSGSGTAFTLRISRVEAEDVGIYYCMQHREYPFTFGGGTKLEIK
As to B2, the “Gas6-induced phosphorylation of Akt on Ser^473” value in assay [1] was “significantly reduces; also recorded: significantly be reduced”.
